This passage reports protein production results from a protein production outcome set (Wang et al. 2014).

A short description of the data set: label from the status in PepcDB records.
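Note: failed if final PepcDB status was selected cloned or expressed and not failed if soluble or beyond.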

“AEDNLGPLPENWEMAYTENGEVYFIDHNTKTTSWLDPRCLNKQQ”: the protein production entry was “not failed”. As for “AELQMLLEEEIPSGKRALIESYQNLTRVADYCENNYIQATDKRKALEETKAYTTQSLASVAYQINALANNVLQLLDIQASQLRRMESSINHISQTVDIHKEKVARREIGILTTNKNTSRTHKIIAPANMERPVRYIRKPIDYTVLDDVGHGVKWLKAKHGNNQPARTGTLSRTN”, the entry is “failed”; as for “AEPTLYGRYENIKVLEIGQTFKAKMDTGALTASLSAKDIELFQRDGDDWVRFRLATKGADDKVYEHKVSRISKIKGRAEGDDEDDEGINPAKRPVVDLELCLGNKKRTVEVNLVDRSHFNFPLLIGAKALREFGAAINPARRYTADEP”, “failed”; as for “AFAVLTTAGSRPVLSFLWVEPAARRQGLARELLMALAQQFPGIGTSVTVPETFTPLFAAAGYTPLSLQQYEMTMDLADAKSA”, “failed”.

For “AHSSLGAPVHLWGTEEVAAWLEHLSLCEYKDIFTRHDIRGSELLHLERRDLKDLGVTKVGHMKRILCGIKELSRSAPAVEA”, the protein production entry is “failed”. For “AIAAADISESSGADCKGDPRNSAKLDADYPLRVLYCGVCSLPTEYCEYMPDVAKCRQWLEKNFPNEFAKLTVENSPKQEAGISEGQGTAGEEEEKKKQKRGGRGQIKQKKKTVPQKVTIAKIPRAKKKYVTRVCGLATFEIDLKEAQRFFAQKFSCGASVTGEDEIIIQGDFTDDIIDVIQEKWPEVDDDSIEDLGEVKK”, the protein production result is given as “failed”. The result for “AIAAELGLNEHHQNEVINYMRFARSKRGLRLKTVDSCFQDLKESRLVEDTFTIDEVSEVLNGLQAVVHSEVESELINTAYTNVLLLRQLFAQAEKWYLKLQTDISELENQELLEQVAEFEKAEITSSNKKPILDVTKPKLAPLNEGGTAELLNEEILRLQEENEKLKSRLKTIEIQATNALDEKSKLEKALQDLQLDQGNQKDFIKAQDLSNLENTVAALKSEFQKTLNDKTENQKSLEENLATAKHDLLRVREQLHMAEKELEKKFQQTAAYRNMKEILTKKNDQIKDLRKRLAQYEPED” reads “failed”.

As for “AIAAEMKTYSHRTMPSACTLVMCSSVESGLPGRDGRDGREGPRGEKGDPGLPGAAGQAGMPGQAGPVGPKGDNGSVGEPGPKGDTGPS”, the protein production entry is on record as “failed”. As for “AIAEEDEFIGEKTFQRYCAEFIKHSQQIGDSWEWRPSKDCSDGYMCKIHFQIKNGSVMSHLGASTHGQTCLPMEEAFELPLDDCEVIETAAASEVIKYEYHVLYSCSYQVPVLYFRASFLDGRPLTLKDIWEGVHECYKMRLLQGPWDTITQQEHPILGQPFFVLHPCKTNEFMTPVLKNSQKINKNVNYITSWLSIVGPVVGLNLPLSYAKATSQDERNVP”, the entry is “failed”; as for “AIAITGETEPACVEDASQLAEQRNGAPVMEAGCAAVPVEANATKRGYWRQRTLHSWFIGRKPQRTCIAVDIDEVLAFFVPELCAFHNKRYGTRLQATDFHSYRFAEVWGGTDTDAIRKVHEFFRTPAFQELQPIPGAKQVLQSRLARFRFVVVTSRQLVIEQETRAWLDKHFSGIFEAIYLGNQWALHPNGEHGTGVGSAAQEPQRLFANRRRKSQVCKACGAAVLIDDLPHNLLDCSENGVFGVLFDFQGQYGWSKSPAFESKDIAVVHSWEAVGELLDRL”, “failed”. For the sequence “AIANSSVSTHGTGDCPVNCTKSEDFAPSKLGTKEYWDGAYKRELQTYKDIGDVGEIWFGEESMHRVIRWMEAQNISENAAILDIGTGNGMFLVELARHGFSNLTGIDYSKAALELTTNILVEEGLKNINIQVEDFLNPSTELKGFDVCIDKGTFDAISLNPEDREEAKKHYVTSLRAVMRPNGFFIITSCNWTKEQLLEIFKPGFELVRELPTPNFQFGGVTGNSVTALVFKQTD”, the protein production result is “failed”. Take “AIATVYRLPASISFDEVIQRVSRENVGAVVRCAVGEEQLVVATSHRQEAWTVLKSFLINRCVPMEAREEEPSLGLEKPQYWDRLPANGRTPMERSDHGRGLEFQKSSQDDPVFEKECLLSGYGAQAPSQTGTESLQIPQVALLEEPVPPAYLKKAENAAVSFCGLVRKDRLSSDRVVSALVYESYREMAMLYIHRIAAEQNLHMFVHTVAGSVPVGSVSVLVTGPSVESVRLALEALKRYVPIWKEDVSVPCI”: the protein production result is “failed”. Turning to “AIREREMKVLNIQVTSSCNYACGMCPFHGDGYSGEYFDERPTIRRDMSLDEIKLILEKASMEGFEWIDLTPNGEFFTHKQWYQILSLIKEFGLKIMITSNGGLLGEEDIKRACEVGVDHIVISVDSLSYESYKKIRKPATKLAFERAIHAPLYFKKYG”, the protein production result is recorded as “failed”.

Turning to “AKAPQKKHKVLLQQFNTGDERAQKRQPIRGSDEVLFKVYCMDHTYTTIRVPVATSVKEVISAVADKLGSGEGLIIVKMSSGGEKVVLKPNDVSVFTTLTINGRLFACPREQFDSLTPLPEQEGPTVGTVGTFELMSSKDLAYQMTIYDWELFNCVHELELIYHTFGRHNFKKTTANLDLFLRRFNEIQFWVVTEICLCSQLSKRVQLLKKFIKIAAHCKEYKNLNSFFAIVMGLSNVAVSRLALTWEKLPSKFKKFYAEFESLMDPSRNHRAYRLTVAKLEPPLIPFMPLLIKDMTFTHEGNKTFIDNLVNFEKMRMIANTARTVRYYRSQPFNPDAAQANKNHQDVRSYVRQLNVIDNQRTLSQMSHRLEPRRP”, the protein production result is given as “failed”. As for “AKDALLLWCQMKTAGYPNVNVHNFTTSWRDGLAFNAIVHKHRPDLLDFESLKKCNAHYNLQNAFNLAEKELGLTKLLDPEDVNVDQPDEKSIITYVATYYHYFSKMKALAVEGK”, the protein production result is “not failed”. For “ALPPEPKEENAEPVSKLRIRTPSGEFLERRFLASNKLQIVFDFVASKGFPWDEYKLLSTFPRRDVTQLDPNKSLLEVKLFPQETLFLEAKE”, the protein production result was “failed”. With “ANFADSGKSLPPSMTSVPVTPVAAHTSSTPLTDIAADTTANDAPAIAAEFGQPDWPEEFGRKITWLATQRMQAAELKLHPAHLGPIEISLQLSDDQRLTAQFISHHPAVREAIEANLPRLREIMAENGITLADTSVSADT”, the protein production result is given as “not failed”. As for “ANGTVATAAIQPKKVKGVGFGDIFKDKPIKLRPRSIEVENDFLPVEKTIGKKLPATTATPDSSKTEMDSRTKSKDYCKVIFPYEAQNDDELTIKEGDIVTLINKDCIDVGWWEGELNGRRGVFPDNFVKLLPPDFEKEGNR”, the entry is “failed”; as for “ANMHIFENPSALAEALADDVGARLAAAIAARGTASLAVSGGSTPKAFFRSLSRRELDWSKVTVTLVDERFVPPENDRSNHRLVADNLLKDGAAEARFVPLYQAAETAEAAAAIASGRTASLGAPLDVVVLGMGTDGHTASFFPGGTRLEEALDPTTPRGVITMEAEGAGEPRLTFTFSSLQDAGYLVLHIEGSGKKEVLAQAEASGDEAEMPIRAMLRRAASPLQIYWAP”, “failed”; as for “APFFEMKLKHYKIFEGMPVTFTCRVAGNPKPKIYWFKDGKQISPKSDHYTIQRDLDGTCSLHTTASTLDDDGNYTIMAANPQGRISCTGRLMVQAVN”, “not failed”.

As for “APGTLVLAGTPIGDITDAPPRLAQELAGADVVAAEDTRRLRRLTQALGVQPAGRVVSYFEGNEAARTPELVEALLDGSRVLLVTDAGMPSVSDPGYRLVAAAVAKDIRVTAVPGPS”, the protein production entry is given as “failed”. As for “AQDLYQNLESKVAQKTREVEEQNLRLKTLYDMTSFLHQQRALDETCQGFIRRLMQLTGADAANARLVDPERGKLDQIAQQGLPAEMALNEECIPDDACHCGEAVQQPFAVLRHIGELEGEEIRHCRKAGFASIAVFHIRNQREDVGIFTLYFRQKRVLSMAEQMLIETLGQHLGVAIEN”, the protein production entry is “failed”. The result for “AQGQRRAPLSVVFTEPQVASVGLSLRQIEDLYADQDAANYVVGQVSFEGQGRSRVMGKNKGLLNVYADRTSGEFLGAEMFGPAAEHIGHLLAWARQQQMTVQAMLTMPFYHPVIEEGLRTALRDAQQKLA” reads “not failed”; that for “AQGVGVEAILLLRRECQASHEDALHLGLAEHAPVIELQTLRKLDGQAVSLIFHRYSAVYHELLADYQGGSVRQYLAECGLPLSRAQSLIGARLPSREEAGLLLMPRHMPALTVLTVSCDGAGQPVELSRSVSRSDRFQ”, “failed”. As for “AQKKTQKTYIPWSNGKLVVSEEGRYLKHENGTPFFWLGETGWLLPERLNRDEAEYYLEQCKRRGYNVIQVQTLNNVPSMNIYGQYSMTDGYNFKNINQKGVYGYWDHMDYIIRTAAKKGLYIGMVCIWGSPVSHGEMNVDQAKAYGKFLAERYKDEPNIIWFIGGDIRGDVKTAEWEALATSIKAIDKNHLMTFHPRGRTTSATWFNNAPWLDFNMFQSGHRRYGQRFGDGDYPIEENTEEDNWRFVERSMAMKPMKPVIDGEPIYEEIPHGLHDENELLWKDYDVRRYAYWSVFAGSFGHTYGHNSIMQFIKPGVGGAYGAKKPWYDALNDPGYNQMKYLKNLMLTFPFFERVPDQSVIAGQNGERYDRAIATRGNDYLMVYNYTGRPMEVDFSKISGAKKNAWWYTTKDGKLEYIGEFDNGVHKFQHDSGYSSGNDHVLIVVDSSKDYVKKDCYQIDTHE”, the entry is “not failed”; as for “ARNGDDCPLGPGRCCRLHTVRASLEDLGWADWVLSPREVQVTMCIGACPSQFRAANMHAQIKTSLHRLKPDTEPAPCCVPASYNPMVLIQKTDTGVSLQTYDDLLAKDCHCI”, “failed”; as for “ARQRFIYIARHRSENIAYYAQALKIDGMVLKAESRRFYPLAEEASQLIGFTDVDDQQGSEGLERSFNSLLVGKNGKQIIRKDARGNVIENIRDEKQYDPQDVMLSID”, “failed”. The result for “ASEGEKHITVTVIHGDQTENVFEFDTDAKYLGEVLESENLVDGESGEYGLFITTVDEETADDSKQQWWCITKGGEQVNTSADQTPVSDGDAFELTLKEGY” reads “not failed”; that for “ATRRYYLGAVELSWDYMQSDLGELPVDARFPPRVPKSFPFNTSVVYKKTLFVEFTDHLFNIAKPRPPWMGLLGPTIQAEVYDTVV”, “failed”. As to “AVYLDCRDLQRTWEVIFNLFEPELQEFTRKVPINHIRQLVEHKHAKPVFSSPIVEGETVMVSCQFTCMEKTIKVYGFGSNKDQAKLSAAKHALQQLSKCDA”, the protein production entry is reported as “failed”. As for “CEGGVDMQQSQVQLQCPLTPPRGLQVSIQGEAVAVRPGEDVLFVVRQEQGDVLTTKYQVDLGDGFKAMYVNLTLTGEPIRHRYESPGIYRVSVRAENTAGHDEAVLFVQV”, the entry is “not failed”.

For “CFVTRIRLLDSNVIECTLSVESTGQECLEAVAQRLELRETHYFGLWFLSKSQQARWVELEKPLKKHLDKFANEPLLFFGVM”, the protein production result is reported as “failed”. The result for “DDDEPGGKGAMYEVTIEQSGDFRSFIKSVVVVANGTQLKDGATGESLASPVILSDEELAVEKVTLSTTGKAIEFAVSGGVVDGEDGVVNEPMQWVVTVYKNGKEIEKKSLVFRDGKEISTDDLNLYYN” reads “not failed”.

With “DDFEDSLEYLEPLDHDAYIVRLNFTGENTTEPIISYMTKTHNIDVNILEADIKNTKNGSLGFLVIHIPHISEEHFKQFKHNLHEQHVNVEVLKHG”, the protein production result was “not failed”. As for “DDGVVAAAAFDADRTDPDTLCVRYITVRQDRQGDRLGARLLRFVRERATERGFEHVSIGVNNPFSYQAAYRAGFCFSG”, the entry is “failed”; as for “DDLIFYKGVDGRYLGANKAFCDFFGKESMEGLSDADILDAEQLRLTQKSDEEVVRFRKNIRLEYGGGHPLRGRFFFSITKSPILLRGKVVGILGIARD”, “failed”.
